This note sets out measurements from paper PMC5700991, “Cryo-EM structure of Saccharomyces cerevisiae target of rapamycin complex 2” (Nature Communications, 2017).

For orientation: stoichiometry N means a count of units in the complex or per binding partner.

T1: Avo1 (S. cerevisiae, UniProt Q08236 1-1176)
T1 construct: Avo1 of S. cerevisiae (ortholog of hSin1); CRIM domain (residues 647-792 in the model; aa 638-786 in the methods), PH domain (aa 1076-1176); Poorly resolved in the map; only a homology model of the CRIM domain was fitted at a low contour level; source: endogenous, S. cerevisiae cell extract (Bit61-TAP strain lacking Bit2); purified as part of TORC2 on IgG-coated dynabeads, released with TEV …
T1 sequence (looked up): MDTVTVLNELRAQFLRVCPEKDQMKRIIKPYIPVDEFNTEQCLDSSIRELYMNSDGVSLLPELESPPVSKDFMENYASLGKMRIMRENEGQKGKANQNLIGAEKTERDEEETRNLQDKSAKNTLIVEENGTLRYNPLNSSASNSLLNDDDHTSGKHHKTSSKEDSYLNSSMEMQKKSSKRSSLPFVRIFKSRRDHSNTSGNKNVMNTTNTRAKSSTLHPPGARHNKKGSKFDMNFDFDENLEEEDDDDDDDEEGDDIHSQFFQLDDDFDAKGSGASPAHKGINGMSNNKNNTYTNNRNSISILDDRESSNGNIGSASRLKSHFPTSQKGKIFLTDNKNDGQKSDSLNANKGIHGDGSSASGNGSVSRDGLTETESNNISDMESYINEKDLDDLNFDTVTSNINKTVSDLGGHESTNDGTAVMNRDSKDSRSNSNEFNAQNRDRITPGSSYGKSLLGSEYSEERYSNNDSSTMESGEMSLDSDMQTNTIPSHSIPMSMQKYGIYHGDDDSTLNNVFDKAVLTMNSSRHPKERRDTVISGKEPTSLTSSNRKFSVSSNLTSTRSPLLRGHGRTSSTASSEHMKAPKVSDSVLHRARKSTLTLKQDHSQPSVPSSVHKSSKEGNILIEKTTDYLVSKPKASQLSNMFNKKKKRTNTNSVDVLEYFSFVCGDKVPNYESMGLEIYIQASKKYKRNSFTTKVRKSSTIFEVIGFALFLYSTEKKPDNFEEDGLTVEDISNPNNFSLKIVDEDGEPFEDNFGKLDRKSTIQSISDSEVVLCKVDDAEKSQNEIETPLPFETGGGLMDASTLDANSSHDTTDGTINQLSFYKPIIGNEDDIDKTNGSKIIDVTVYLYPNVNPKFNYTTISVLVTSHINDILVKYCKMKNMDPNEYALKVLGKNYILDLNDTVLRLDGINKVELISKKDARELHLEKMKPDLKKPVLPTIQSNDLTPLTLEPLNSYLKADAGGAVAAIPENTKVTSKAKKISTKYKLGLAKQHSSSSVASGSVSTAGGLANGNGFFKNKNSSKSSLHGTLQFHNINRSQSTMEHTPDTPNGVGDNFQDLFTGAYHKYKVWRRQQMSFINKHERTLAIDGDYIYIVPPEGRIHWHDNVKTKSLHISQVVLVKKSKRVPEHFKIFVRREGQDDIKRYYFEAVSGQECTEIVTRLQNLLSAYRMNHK

T2: Avo3 (S. cerevisiae, UniProt P40061 1-1430)
T2 construct: Avo3 of S. cerevisiae (ortholog of Rictor); armadillo-like helical domain in its middle part; Only 17 individual helices are modelled; they are not tied to residue numbers in the text; source: endogenous, S. cerevisiae cell extract (Bit61-TAP strain lacking Bit2); purified as part of TORC2 on IgG-coated dynabeads, released with TEV protease
T2 sequence (looked up): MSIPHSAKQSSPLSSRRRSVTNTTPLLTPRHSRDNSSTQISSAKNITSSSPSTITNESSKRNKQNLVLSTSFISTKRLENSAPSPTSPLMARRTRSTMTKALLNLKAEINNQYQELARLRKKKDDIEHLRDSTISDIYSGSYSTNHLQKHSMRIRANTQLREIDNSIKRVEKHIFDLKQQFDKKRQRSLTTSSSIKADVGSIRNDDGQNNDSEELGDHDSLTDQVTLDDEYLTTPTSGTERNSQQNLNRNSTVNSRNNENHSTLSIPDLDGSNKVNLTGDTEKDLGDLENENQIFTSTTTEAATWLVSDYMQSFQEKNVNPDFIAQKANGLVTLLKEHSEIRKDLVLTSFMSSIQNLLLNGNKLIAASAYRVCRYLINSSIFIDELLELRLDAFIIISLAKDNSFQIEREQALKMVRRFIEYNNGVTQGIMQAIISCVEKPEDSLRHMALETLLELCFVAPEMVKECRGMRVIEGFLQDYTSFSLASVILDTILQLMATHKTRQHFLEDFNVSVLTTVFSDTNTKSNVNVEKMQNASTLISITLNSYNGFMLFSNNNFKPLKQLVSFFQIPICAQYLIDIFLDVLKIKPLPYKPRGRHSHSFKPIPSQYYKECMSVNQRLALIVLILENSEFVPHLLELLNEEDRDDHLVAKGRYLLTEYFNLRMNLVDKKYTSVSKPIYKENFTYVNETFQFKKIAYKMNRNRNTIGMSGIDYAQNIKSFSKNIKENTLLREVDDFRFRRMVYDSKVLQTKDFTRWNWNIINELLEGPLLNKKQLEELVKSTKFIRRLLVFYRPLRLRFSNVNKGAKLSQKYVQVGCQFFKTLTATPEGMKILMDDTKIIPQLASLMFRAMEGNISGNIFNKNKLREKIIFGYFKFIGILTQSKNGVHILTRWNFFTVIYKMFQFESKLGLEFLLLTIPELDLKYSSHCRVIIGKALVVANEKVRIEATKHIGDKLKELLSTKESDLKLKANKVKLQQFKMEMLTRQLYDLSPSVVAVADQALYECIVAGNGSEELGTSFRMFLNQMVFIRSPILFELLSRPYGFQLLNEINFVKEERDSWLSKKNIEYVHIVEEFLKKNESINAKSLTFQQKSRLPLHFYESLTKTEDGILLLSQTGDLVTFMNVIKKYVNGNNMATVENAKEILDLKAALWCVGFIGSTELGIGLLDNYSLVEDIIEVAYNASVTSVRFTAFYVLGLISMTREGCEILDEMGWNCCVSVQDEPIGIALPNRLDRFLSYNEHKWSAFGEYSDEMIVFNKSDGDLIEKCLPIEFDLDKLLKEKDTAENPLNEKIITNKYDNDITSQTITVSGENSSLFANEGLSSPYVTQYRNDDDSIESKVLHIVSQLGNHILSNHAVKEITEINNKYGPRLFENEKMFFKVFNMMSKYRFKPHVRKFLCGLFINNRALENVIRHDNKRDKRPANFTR

B1: Lst8 (natural protein, S. cerevisiae, UniProt P41318 1-303, looked up)
chain: MSVILVSAGYDHTIRFWEALTGVCSRTIQHSDSQVNRLEITNDKKLLATAGHQNVRLYDIRTTNPNPVASFEGHRGNVTSVSFQQDNRWMVTSSEDGTIKVWDVRSPSIPRNYKHNAPVNEVVIHPNQGELISCDRDGNIRIWDLGENQCTHQLTPEDDTSLQSLSMASDGSMLAAANTKGNCYVWEMPNHTDASHLKPVTKFRAHSTYITRILLSSDVKHLATCSADHTARVWSIDDDFKLETTLDGHQRWVWDCAFSADSAYLVTASSDHYVRLWDLSTREIVRQYGGHHKGAVCVALNDV
notes: Lst8 of S. cerevisiae, composed entirely of WD40 repeats (beta propeller); Two copies stand in the TORC2 complex; source: endogenous, S. cerevisiae cell extract (Bit61-TAP strain lacking Bit2); purified as part of TORC2 on IgG-coated dynabeads, released with TEV protease
B2: Bit61-TAP (natural protein, S. cerevisiae, UniProt P47041 1-543, looked up)
chain: MTAEDILLRERTSTTTQRPVNSEQYLNVQLATAPVKNFQTTSEISRQTLVDTSNDDVYSIKNLKGSRNPISPSVSNVGFQSIFHTVDHPRSKVSVASNHSLRSNDNASAATSKSGSSQIGESHSVDTVECSNNLSKKLSSDAISITQKSLHSTPSGRYMKGKASGFFNRRNRAHTTISSDPASFLTDSSTLHNSSHSFRNVIKNFFQNKSHRHIGQDAIEPAIPNSLSKFLHSSYGRHKSPSQFIHTNAGQLVDSGTSVYSLNVNPSGVNPNTIVEDPLSGTDPASPNPVSMLHDLLRNLPSLEANYKHFNSQELTTLTNNIWNIFCSNVAELFRTQRIWKLRAKIENFNEVLEFYCILKTDPRVTHSGMNRIISDLKEFLVSSLYNLENQIVFNYSNEDTINNALKRLGVIWRIFYQEVYYDLAAVLLPLDQSIREDGNSTVLKSGNESRTHINGNYSIGFLLLMCFRDSIVLPCYENFVNSNDGISKSFQLYIFNQEEESNVTETDKLTLLQCFGILSTIQSNDRNQRIIEELLAGIRMSI
notes: Bit61 of S. cerevisiae (ortholog of Protor), subunit of TORC2; The chain was captured by the protein A part of the TAP tag and set free with TEV protease; also called TAP-tagged Bit61; source: S. cerevisiae Bit61-TAP expressing strain lacking Bit2, cell extract; captured on IgG-coated dynabeads, released with TEV protease
B3: Avo2 (natural protein, S. cerevisiae, UniProt Q04749 1-426, looked up)
chain: MLKEPSVRLREAIIEGNLLIVKRLLRRNPDLLTNIDSENGWSSLHYASYHGRYLICVYLIQLGHDKHELIKTFKGNTCVHLALMKGHEQTLHLLLQQFPRFINHRGENGRAPIHIACMNDYYQCLSLLIGVGADLWVMDTNGDTPLHVCLEYGSISCMKMLLNEGEVSLDDNVRDKGNWKPIDVAQTFEVGNIYSKVLKEVKKKGPPLGAGKKPSSFRTPILNAKATFEDGPSPVLSMNSPYSLYSNNSPLPVLPRRISTHTTSGNGGNRRSSITNPVFNPRKPTLSTDSFSSSSNSSSRLRVNSINVKTPVGVSPKKELVSESVRHSATPTSPHNNIALINRYLLPNKSNDNVRGDSQTATINDDGGGGNGGDATIGMGLRKDPDDENENKYKIKVNNGEPRRRVSLLNIPISKLRNSNNTRAED
notes: Avo2 of S. cerevisiae; N-terminal five ankyrin repeats (residues 4-171; modelled aa 4-163); Only the ankyrin repeats are modelled in the map; source: endogenous, S. cerevisiae cell extract (Bit61-TAP strain lacking Bit2); purified as part of TORC2 on IgG-coated dynabeads, released with TEV protease

What all share (assay): cryo-EM structure; TORC2 purified from S. cerevisiae extract by protein-A affinity purification of Bit61-TAP (IgG-coated dynabeads; 50 mM HEPES pH 7.5, 0.2 mM CHAPS, 300 mM KCl, 0.5 mM DTT wash; TEV release); single-particle cryo-EM, C2 symmetry, 7.9 Å overall; homology models fitted
Test [1] deals with Tor2 (S. cerevisiae) (UniProt P32600).
Test [2] addresses T3, Tor2 (S. cerevisiae, UniProt P32600 1-2474).
T3 construct: Tor2, Ser/Thr protein kinase of S. cerevisiae TORC2; HEAT repeats (spiral, bridge), FAT, FRB, kinase and FATC domains; Two copies stand in the TORC2 complex; The model in the map is a homology model built on the K. marxianus Tor-Lst8 structure; also called Sc Tor2; S. cerevisiae Tor2; source: endogenous, S. cerevisiae cell extract (Bit61-TAP strain lacking Bit2); purified as part of TORC2 on …
As to conditions: both partners purified.

In test [3] the target is T1, Avo1. The settings on record: both partners purified.
In test [4] the target is B2. The settings on record: both partners purified.
For test [5], the target named is T2, Avo3. As to conditions: both partners purified.

T3 sequence (P32600 whole entry, the tested form may be a part): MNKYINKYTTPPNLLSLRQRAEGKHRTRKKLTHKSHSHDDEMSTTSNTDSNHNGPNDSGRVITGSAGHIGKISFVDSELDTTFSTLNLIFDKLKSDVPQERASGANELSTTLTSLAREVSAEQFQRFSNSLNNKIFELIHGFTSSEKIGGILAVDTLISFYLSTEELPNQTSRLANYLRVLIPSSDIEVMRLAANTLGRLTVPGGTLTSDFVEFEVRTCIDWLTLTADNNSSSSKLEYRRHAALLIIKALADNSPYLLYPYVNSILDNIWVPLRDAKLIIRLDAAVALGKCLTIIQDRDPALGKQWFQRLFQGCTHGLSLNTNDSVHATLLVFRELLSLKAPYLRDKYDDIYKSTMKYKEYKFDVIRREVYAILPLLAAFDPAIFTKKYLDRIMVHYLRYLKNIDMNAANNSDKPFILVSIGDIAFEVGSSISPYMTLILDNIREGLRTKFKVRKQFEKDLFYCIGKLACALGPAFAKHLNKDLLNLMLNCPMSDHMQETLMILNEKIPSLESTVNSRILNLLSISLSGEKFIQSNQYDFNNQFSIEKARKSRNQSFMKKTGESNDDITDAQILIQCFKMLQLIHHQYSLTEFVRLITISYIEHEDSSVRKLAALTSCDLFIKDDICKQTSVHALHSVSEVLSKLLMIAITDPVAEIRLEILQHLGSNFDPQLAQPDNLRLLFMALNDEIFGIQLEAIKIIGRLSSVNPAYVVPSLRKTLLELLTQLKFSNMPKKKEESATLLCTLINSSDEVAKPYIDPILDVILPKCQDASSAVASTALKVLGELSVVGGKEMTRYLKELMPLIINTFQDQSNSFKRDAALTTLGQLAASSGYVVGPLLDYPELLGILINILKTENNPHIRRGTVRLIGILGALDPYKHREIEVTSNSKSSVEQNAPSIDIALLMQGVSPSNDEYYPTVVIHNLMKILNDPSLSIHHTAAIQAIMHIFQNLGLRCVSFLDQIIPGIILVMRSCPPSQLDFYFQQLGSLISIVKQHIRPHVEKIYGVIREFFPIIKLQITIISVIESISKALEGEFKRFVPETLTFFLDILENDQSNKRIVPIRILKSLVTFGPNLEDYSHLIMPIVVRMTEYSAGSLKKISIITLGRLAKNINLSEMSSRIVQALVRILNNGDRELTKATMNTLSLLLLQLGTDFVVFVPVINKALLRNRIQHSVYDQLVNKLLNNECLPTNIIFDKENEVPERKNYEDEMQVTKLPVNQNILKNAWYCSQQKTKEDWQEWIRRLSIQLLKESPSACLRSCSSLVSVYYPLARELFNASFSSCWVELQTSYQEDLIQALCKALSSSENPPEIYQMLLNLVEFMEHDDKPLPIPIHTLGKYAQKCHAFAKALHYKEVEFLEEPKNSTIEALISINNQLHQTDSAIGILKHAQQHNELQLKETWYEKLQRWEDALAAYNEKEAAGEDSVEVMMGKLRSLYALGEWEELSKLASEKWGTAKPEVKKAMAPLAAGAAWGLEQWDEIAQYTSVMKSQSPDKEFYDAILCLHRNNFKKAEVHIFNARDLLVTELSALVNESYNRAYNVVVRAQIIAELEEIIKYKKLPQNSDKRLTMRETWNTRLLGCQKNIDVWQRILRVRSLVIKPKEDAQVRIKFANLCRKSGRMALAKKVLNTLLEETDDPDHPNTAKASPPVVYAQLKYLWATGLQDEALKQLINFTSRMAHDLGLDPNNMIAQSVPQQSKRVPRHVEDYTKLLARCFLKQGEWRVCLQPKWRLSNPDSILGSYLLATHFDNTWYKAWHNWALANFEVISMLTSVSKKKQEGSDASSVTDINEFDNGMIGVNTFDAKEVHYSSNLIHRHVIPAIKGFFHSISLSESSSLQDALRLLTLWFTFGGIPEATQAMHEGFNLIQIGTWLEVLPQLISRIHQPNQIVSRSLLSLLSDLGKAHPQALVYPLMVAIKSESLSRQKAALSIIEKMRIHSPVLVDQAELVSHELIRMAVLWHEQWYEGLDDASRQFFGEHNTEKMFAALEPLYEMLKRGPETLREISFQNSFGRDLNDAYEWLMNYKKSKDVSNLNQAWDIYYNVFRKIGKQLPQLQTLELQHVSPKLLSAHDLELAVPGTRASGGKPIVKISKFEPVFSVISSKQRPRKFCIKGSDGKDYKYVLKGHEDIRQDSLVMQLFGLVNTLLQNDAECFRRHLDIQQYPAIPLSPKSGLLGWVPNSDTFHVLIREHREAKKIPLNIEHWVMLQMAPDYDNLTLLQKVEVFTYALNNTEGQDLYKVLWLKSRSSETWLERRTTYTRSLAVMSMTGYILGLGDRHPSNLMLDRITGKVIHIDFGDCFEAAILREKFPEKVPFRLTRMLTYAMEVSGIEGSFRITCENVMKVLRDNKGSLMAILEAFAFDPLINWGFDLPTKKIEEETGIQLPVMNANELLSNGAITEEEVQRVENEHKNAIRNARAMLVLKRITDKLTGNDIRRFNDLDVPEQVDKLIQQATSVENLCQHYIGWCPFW

With Tor2, P32600 1-2474, in test [1], the stoichiometry N came to 2.

Take B1: the binding result in test [2], in test [3] and in test [4] was “binds” in each case.

On to B2, for which the binding result in test [2], in test [5] and in test [3] was “binds” each time.

Take B3: the binding result in test [2] and in test [4] was “binds” throughout.
